The source of these data is patent US20200407442A1 (WUXI BIOLOGICS IRELAND, published 2020).

The target of one test is T1, Variant 7: xPro1.FL-x7 (human; mouse).
T1 construct: Chimeric full-length LAG-3 on transfected 293F cells
T1 chain: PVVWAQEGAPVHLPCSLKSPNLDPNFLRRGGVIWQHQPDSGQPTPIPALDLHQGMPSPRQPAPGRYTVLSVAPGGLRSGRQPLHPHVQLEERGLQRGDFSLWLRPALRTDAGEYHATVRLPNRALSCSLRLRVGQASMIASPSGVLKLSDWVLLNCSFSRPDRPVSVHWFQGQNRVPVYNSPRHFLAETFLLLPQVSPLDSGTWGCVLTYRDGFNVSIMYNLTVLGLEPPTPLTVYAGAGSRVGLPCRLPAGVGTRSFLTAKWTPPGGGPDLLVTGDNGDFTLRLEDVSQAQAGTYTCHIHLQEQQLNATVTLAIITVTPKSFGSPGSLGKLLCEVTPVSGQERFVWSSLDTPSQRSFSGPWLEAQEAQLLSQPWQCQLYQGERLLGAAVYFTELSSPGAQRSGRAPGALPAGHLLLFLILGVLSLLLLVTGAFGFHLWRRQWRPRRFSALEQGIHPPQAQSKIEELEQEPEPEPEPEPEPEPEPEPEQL
Description: FACS, 1 ug/mL antibody, transfected 293F cells.

A further test addresses T2, Variant 8: xPro1.FL-x8 (human; mouse).
T2 construct: Chimeric full-length LAG-3 on transfected 293F cells
T2 chain: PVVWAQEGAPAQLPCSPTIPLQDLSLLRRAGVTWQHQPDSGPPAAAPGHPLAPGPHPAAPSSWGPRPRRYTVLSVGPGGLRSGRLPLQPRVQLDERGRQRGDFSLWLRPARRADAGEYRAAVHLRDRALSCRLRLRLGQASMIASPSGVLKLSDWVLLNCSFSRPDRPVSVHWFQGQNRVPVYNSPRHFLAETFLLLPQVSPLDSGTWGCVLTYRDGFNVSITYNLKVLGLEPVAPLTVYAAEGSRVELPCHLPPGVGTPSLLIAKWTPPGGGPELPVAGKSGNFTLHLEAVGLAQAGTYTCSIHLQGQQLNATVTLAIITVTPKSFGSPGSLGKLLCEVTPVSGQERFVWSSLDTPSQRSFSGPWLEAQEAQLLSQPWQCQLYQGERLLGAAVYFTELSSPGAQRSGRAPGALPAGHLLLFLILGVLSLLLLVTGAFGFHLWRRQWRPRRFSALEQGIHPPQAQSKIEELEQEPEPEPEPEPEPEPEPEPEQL
Description: FACS, 1 ug/mL antibody, transfected 293F cells.

The target of test [1] is T3, full-length human LAG-3 on cells (human, UniProt P18627 23-525).
T3 construct: Expressed on Flp-In-293, CHO or 293F transfectants; also called hPro1.FL; cell surface human LAG-3
T3 sequence: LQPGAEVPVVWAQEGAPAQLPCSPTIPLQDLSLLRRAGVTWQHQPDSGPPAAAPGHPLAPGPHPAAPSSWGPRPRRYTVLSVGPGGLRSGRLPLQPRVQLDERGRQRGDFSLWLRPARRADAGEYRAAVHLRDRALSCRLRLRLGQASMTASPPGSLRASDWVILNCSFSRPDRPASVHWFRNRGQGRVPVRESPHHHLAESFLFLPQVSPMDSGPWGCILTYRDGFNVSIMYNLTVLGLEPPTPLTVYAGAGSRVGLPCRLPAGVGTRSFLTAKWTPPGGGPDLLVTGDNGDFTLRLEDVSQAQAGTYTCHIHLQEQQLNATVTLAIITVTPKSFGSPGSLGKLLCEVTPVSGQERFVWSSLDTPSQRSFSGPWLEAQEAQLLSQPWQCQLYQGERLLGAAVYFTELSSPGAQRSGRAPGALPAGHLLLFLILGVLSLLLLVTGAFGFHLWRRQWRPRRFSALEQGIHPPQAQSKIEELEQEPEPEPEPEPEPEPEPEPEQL
Description: FACS competition on Flp-In-293 cells expressing human LAG-3: biotinylated BMK7 at 1 ug/mL, serially diluted antibody, Streptavidin-PE. Here is the method:
(§1) The binding epitope of LAG-3 antibodies was binned against benchmark antibodies BMK1, BMK7 and BMK5 by FACS assay. Flp-In-293 cells expressing human LAG-3 at the cell surface were incubated with biotinylated benchmark antibodies at concentration of 1 μg/mL for 1 hour, followed by the adding of serially diluted LAG-3 antibodies. Streptavidin-PE antibody (Jackson Immunoresearch Lab) was used to detect the binding of benchmark antibodies to cells. The MFI was evaluated by flow cytometry and analyzed by FlowJo.

Test [2] deals with T3, full-length human LAG-3 on cells. Kind of test: FACS competition on Flp-In-293 cells expressing human LAG-3: biotinylated BMK1 at 1 ug/mL, serially diluted antibody, Streptavidin-PE. As to the method: as §1

B1: 1.53.3-uAb-IgG4k (antibody, V domains shown)
VH: QVQLQQWGAGLLKPSETLSLTCGVYGGSFSGYYWSWIRQPPGMGLEWIGEINHRGNTNYNPSLKSRVTISEDTSKNQFSLRLSSVTAADTAVYFCTRGEDYSDYDYYGDFWGQGTLVTVSS
VL: EIVLTQSPATLSLSQGERATLSCRASQSISSYLAWYQQKPGQAPRLLIYAASNRATGIPARFSGSGSGTDFTLTISSLEPEDFAIYYCQQRSNWPLTFGGGTKVEIK
notes: Fully human antibody from OMT rats; IgG4 kappa by its name
For B1, the MFI with Variant 7: xPro1.FL-x7 amounted to 39.3; with Variant 8: xPro1.FL-x8, 7430. Besides, the “PE+ %” value with Variant 7: xPro1.FL-x7 was 1.52%; in the test with Variant 8: xPro1.FL-x8, 97.6%. The “IC50 (read off the curve)” value is roughly 3 nM in test [1] and roughly 5 nM in test [2].
